Measured values published in the supplement of paper PMC9170038.

Test system: MS2 coat protein
Assay: apparent KD of MS2 coat protein; designed switch direction (-1 OFF switch, 1 ON switch): 1; higher = weaker reporter binding
Settings: Eterna round: R98
Description: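 RNA-MaP: designed FMN/MS2 RNA switches (84 nt design region) are transcribed on-chip within common flanks and titrated with SNAP-549-labelled MS2 coat protein (about 1-3000 nM) in 100 mM Tris pH 7.5, 80 mM KCl, 4 mM MgCl2, without or with 200 uM FMN. Median apparent KD per design; activation ratio = KD,OFF / KD,ON.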

Sequence | apparent KD of MS2 coat protein (input ligand: FMN 200 uM) | apparent KD of MS2 coat protein (input ligand: none)
CAUGUCCACACAGGAUAUGCUGGACUUUGUCCAGCAGAAGGGUGAACAUGAGGAUCACCCAUGUAAAGGACAUGUAUAUUUAAU [Denovo 16] | 93.3 nM | 715 nM
CCUGACACUUGAGGAUAUGCUCAGGAAUACUGAGCAGAAGGCAGGGAAACCUGAGGAUCACCCAGGUAAGUCAGGAAUAAUAAA [Same State NG1 - A3C, U17G Submission 2A] | 21.9 nM | 62 nM
CGCUGUAAUGCAGGAUAUGCAUUGGAUUACAAUGCAGAAGGGCGAUUACAUGAGGAUCACCCAUGUAUAAACAGUGAAGAAGAG [Hyphema mod 5] | 26.9 nM | 51.6 nM
CGCUGUCGCGCAGGAUAUGCAUUGGAUUACAAUGCAGAAGGGCGAUUACAUGAGGAUCACCCAUGUGUAGACAGUGAAGAAGAG [SameState #31 NG1] | 28.4 nM | 253 nM
CUAAUAUAGUGAGGAUAUGCACAGGAUCACCGUGUAGAAGGCAUCAGGUAGAAGGUGCAGAGGAUCACCCUGUAAGGAUAUACA [pwkr2 ssNG1 DX.5] | 102 nM | 385 nM
CUAGCAUACCGAGGAUAUUCAUAUAAUAAAUAAACAUGAGGAUCACCCAUGUGGCGAAAGCCUAGGGAGAAGGCGGAAUGCUAU [salish99_SSNG2_r2_111] | 23.8 nM | 210 nM
CUCGUUGUCACAGGAUAUGCCGCCGGACAUGAGGAUCACCCAUGUACCCGCUUGAGAAAACUGCGGUAGAAGGGUGACUUAUAA [Erriisin] | 46 nM | 110 nM
GACGAAUUCUUAGGAUAUCGAGUGGAAUACACUCGAGAAGGAAGAUAUACCUGAGGAUCACCCAGGUAAAACUGGACGUCAAUA [Same State NG1 - A3C, U17G Submission 8D A68U] | 46.7 nM | 193 nM
GCCAUCGUAUGAGGAUAUGGCACCGUUUCGGUGCCAGAAGGCAUGUCUUUUGACAUGAGGAUCACCCAUGUAGUUAAGAUGGCA [Pyrimidine booster 4] | 147 nM | 637 nM
GCCGUAAUAGCAGGAUAUGCUCCGGUUGCUCAUACAUGAGGAUCACCCAUGUCACGUGCGGUGGUGCAGAAGGGUUGAAGCGAU [Ausaso] | 122 nM | 465 nM
GCUUGCGACGCAGGAUAUGGGUGCCUGAACACGAGGAUCACCCGUGUAGAGGAAGCGAAAAGCUCUCAGAAGGGCGUCGCAGGC [United States 6 - Jieux - Same State NG 2] | 19.8 nM | 50.5 nM
GGAGACCUCACAGGAUAUGCUGGACUUUGUCCAGCAGAAGGGUGUUUAACAUGAGGAUCACCCAUGUAGGUCUCCAAAUUUAAU [Denovo 60] | 46 nM | 707 nM
GGUCCAUCAUGAGGAUAUGGCACCUUAUUUGUGCCAGAAGGCAUGUCAAUAGACAUGAGGAUCACCCAUGUAAUAAAUUGGACC [EliMod 3 - Jieux - Same State NG 1] | 54.1 nM | 642 nM
GGUCUGAUAUGAGGAUAUGCUCAGGAUAACUGAGCAGAAGGCAUGUGAAAACAUGAGGAUCACCCAUGUAUGAUCUACAGACCA [Same State NG1 - WT Aptamer 4D] | 22.7 nM | 55.6 nM
GUAGCAUACCGAGGAUAUUCAUACCAUAAAUGGACAUGAGGAUCACCCAUGUGGCGAAAGCCUUGGGAGAAGGCGGAAUGCUAC [EliMod 3 - Jieux - Same State NG 2] | 25.2 nM | 673 nM
